This assay addresses Nonhuman Primate CD123. The experiment in a line: SPR (Biacore T-100), univalent affinity; antibody captured on the CM4 chip, nonhuman primate CD123 ECD as analyte. In general terms: In SPR one partner is held on a chip, and binding of the other changes the refractive index at the surface.

The record followed here is patent publication US20230295316A1.

Nonhuman Primate CD123, sequence (soluble extracellular domain with His and Avi tags, as listed by the source limits assumed, form in doubt): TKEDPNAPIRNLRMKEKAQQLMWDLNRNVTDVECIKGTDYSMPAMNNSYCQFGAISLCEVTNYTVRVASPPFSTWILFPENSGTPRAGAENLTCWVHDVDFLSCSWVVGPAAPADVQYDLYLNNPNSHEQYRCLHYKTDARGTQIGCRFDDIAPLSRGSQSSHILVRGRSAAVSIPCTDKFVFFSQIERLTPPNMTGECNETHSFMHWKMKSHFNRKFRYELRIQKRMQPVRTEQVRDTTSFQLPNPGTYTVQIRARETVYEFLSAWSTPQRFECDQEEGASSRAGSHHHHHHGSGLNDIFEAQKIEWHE

B1: 123-10C4 (murine anti-CD123 antibody, IgG2b isotype, Kappa Light Chain) (antibody, V domains shown)
VH: QVQLKESGPGLVAPSQNLSITCTVSGFSLTTYDINWIRQPPGKGLEWLGVIWTGGGTNYNSAFMSRLSISKDNSKSQVFLKMNSLQTDDTAMYYCVRGDTYHYALDFWGQGTSVTVSS
VL: DIVMSQSPSSLAVSAGEKVTMSCKSSQSLLSSGTRKNYLAWYQQKPGQSPKLLIYWASTRESGVPDRFTGSGSGTDFTLTISSVQAEDLAVYYCKQSYILFTFGSGTKLEIK
On to B1, for which the Kd (as a rule, the equilibrium constant for the complex coming apart) came to 16.1 nM; the off-rate (koff) (usually the first-order rate constant of dissociation) is 0.0023 s⁻¹; the on-rate (kon) (in general, the second-order rate constant of association) was 143000 M⁻¹ s⁻¹.
